Like-named read-outs stand apart in the source and are kept apart here. Positions of bridges follow the written chain, without caps; N, C: chain ends. Residues, ends and D or L forms follow the SMILES beside them. *: point of attachment. X1 = O=C(O)c1ccc(-c2c3nc(c(-c4ccc(C(=O)O)cc4)c4ccc([nH]4)c(-c4ccc(C(=O)*)cc4)c4nc(c(-c5ccc(C(=O)O)cc5)c5ccc2[nH]5)C=C4)C=C3)cc1; X2 = O=C(O)C/C(=C/C(=O)*)C(=O)O
Assays:
[1] = Experimental: The main organs (heart, liver, spleen, lung, kidney and intestine) of healthly BALB/c nude mice (~8 weeks old, 18 g) were collected under euthanasia after treatment with PBS and Gi-F-CAA (8, 12 and 16 mg/kg in 100 μL PBS) for 1 day. Afterwards, the histology evaluation by Hematoxylin and Eosin (H&E) Staining was carried out by Servicebio Technology Co., Ltd. (Wuhan, China). Meanwhile, the whole blood and serum of healthly BALB/c nude mice (~8 weeks old, 18 g) were collected after treatment with PBS and Gi-F-CAA (8, 12 and 16 mg/kg in 100 μL PBS) for 1 days. The blood biochemistry analysis was performed with Hitachi Automatic Biochemical Analyzer 7100. The blood routine analysis was carried out by Vital River Laboratory Animal Technology Co., Ltd. (Beijing, China).
EJ tumor tissues = test: Tumor iron content detection (Prussian blue); type: in vivo, BALB/c nude mice; details: 8 mg/kg i.v.
Experimental: EJ tumor tissues were collected under euthanasia at the end of treatment and washed with PBS for 3 times. Afterwards, the DAB-enhanced Prussian blue iron staining was performed with Wuhan Servicebio Technology Co., Ltd.

[2] = Morphology and size by TEM; type: physicochemical; details: PBS 0.01 M, pH 6.5, 1 h, 40 μM
Experimental: Nano-ZS 3600 (Malvern Instruments, UK) was used to measure the size distribution of the peptide-porphyrin conjugate solutions. The conjugate solutions (40 μM) were incubated at pH 7.4 or pH 6.5 before measurements. An average value was determined by three repeated measurements at 25 °C for each sample. Besides, transmission electron microscopy (TEM, Tecnai G2 20 S-TWIN) was conducted to observe the morphology and diameters of conjugates in aqueous solution, The conjugates (50 μL, 40 μM) were kept in PB solution at pH 7.4 or pH 6.5, which were dropped on copper meshes. After 5 min, unnecessary liquid was removed and the uranyl acetate solution (10 μL) was dropped on this copper mesh to stain the samples for 10 min. Finally, the copper meshes were washed with deionized water, and dried at room temperature for observation.

[3] = healthy mice, i.v. 8, 12 and 16 mg/kg, 1 day post-injection

CC(C)C[C@H](NC(=O)c1ccc(-c2c3nc(c(-c4ccc(C(=O)O)cc4)c4ccc([nH]4)c(-c4ccc(C(=O)O)cc4)c4nc(c(-c5ccc(C(=O)O)cc5)c5ccc2[nH]5)C=C4)C=C3)cc1)C(=O)N[C@@H](CCCCNC(=O)/C=C(/CC(=O)O)C(=O)O)C(=O)N[C@@H](CC(C)C)C(=O)N[C@@H](CCCCN)C(=O)N[C@@H](CC(C)C)C(=O)N[C@@H](CCCCNC(=O)/C=C(/CC(=O)O)C(=O)O)C(=O)NCC(=O)N[C@@H](C)C(=O)N[C@H]1CSSC[C@@H](C(=O)N2CCC[C@H]2C(=O)N[C@H](C(=O)O)C(C)C)NC(=O)[C@@H]2CCCN2C(=O)[C@H](Cc2ccc(O)cc2)NC(=O)[C@H](CC(C)C)NC(=O)[C@@H]2CCCN2C(=O)[C@H](CC(C)C)NC(=O)[C@H](Cc2c[nH]c3ccccc23)NC(=O)[C@H](CC(N)=O)NC1=O [Gi-F-CAA] (X1-LK(X2)LKLK(X2)GACNWLPLYPCPV-OH; disulfide 9-17; C-terminus assumed)
ALP ([1]; 8 mg/kg, mice 1): 152 U/L
ALT ([1]; 8 mg/kg, mice 1): 62 U/L
AST ([1]; 8 mg/kg, mice 1): 183 U/L
BUN ([1]; 8 mg/kg, mice 1): 13.2 mmol/L
CREA ([1]; 8 mg/kg, mice 1): 30.8 µmol/L
HGB ([1]; 8 mg/kg, mice 1): 15.7 g/dL
NEUT ([1]; 8 mg/kg, mice 1): 0.4 109/L
PLT ([1]; 8 mg/kg, mice 1): 985 109/L
RBC ([1]; 8 mg/kg, mice 1): 10.6 1012/L
WBC ([1]; 8 mg/kg, mice 1): 1.8 109/L
ALP ([1]; 8 mg/kg, mice 2): 159 U/L
ALT ([1]; 8 mg/kg, mice 2): 60 U/L
AST ([1]; 8 mg/kg, mice 2): 184 U/L
BUN ([1]; 8 mg/kg, mice 2): 14.42 mmol/L
CREA ([1]; 8 mg/kg, mice 2): 28.8 µmol/L
HGB ([1]; 8 mg/kg, mice 2): 15.4 g/dL
NEUT ([1]; 8 mg/kg, mice 2): 0.3 109/L
PLT ([1]; 8 mg/kg, mice 2): 1198 109/L
RBC ([1]; 8 mg/kg, mice 2): 10.1 1012/L
WBC ([1]; 8 mg/kg, mice 2): 1.5 109/L
ALP ([1]; 8 mg/kg, mice 3): 145 U/L
ALT ([1]; 8 mg/kg, mice 3): 56 U/L
AST ([1]; 8 mg/kg, mice 3): 193 U/L
BUN ([1]; 8 mg/kg, mice 3): 13.94 mmol/L
CREA ([1]; 8 mg/kg, mice 3): 31.6 µmol/L
HGB ([1]; 8 mg/kg, mice 3): 15.9 g/dL
NEUT ([1]; 8 mg/kg, mice 3): 0.3 109/L
PLT ([1]; 8 mg/kg, mice 3): 1073 109/L
RBC ([1]; 8 mg/kg, mice 3): 9 1012/L
WBC ([1]; 8 mg/kg, mice 3): 1.7 109/L
ALP ([1]; 8 mg/kg, mice 4): 159 U/L
ALT ([1]; 8 mg/kg, mice 4): 63 U/L
AST ([1]; 8 mg/kg, mice 4): 180 U/L
BUN ([1]; 8 mg/kg, mice 4): 13.15 mmol/L
CREA ([1]; 8 mg/kg, mice 4): 31 µmol/L
HGB ([1]; 8 mg/kg, mice 4): 15.3 g/dL
NEUT ([1]; 8 mg/kg, mice 4): 0.4 109/L
PLT ([1]; 8 mg/kg, mice 4): 1117 109/L
RBC ([1]; 8 mg/kg, mice 4): 10 1012/L
WBC ([1]; 8 mg/kg, mice 4): 2 109/L
ALP ([1]; 12 mg/kg, mice 1): 150 U/L
ALT ([1]; 12 mg/kg, mice 1): 61 U/L
AST ([1]; 12 mg/kg, mice 1): 192 U/L
BUN ([1]; 12 mg/kg, mice 1): 13.27 mmol/L
CREA ([1]; 12 mg/kg, mice 1): 30 µmol/L
HGB ([1]; 12 mg/kg, mice 1): 15.2 g/dL
NEUT ([1]; 12 mg/kg, mice 1): 0.4 109/L
PLT ([1]; 12 mg/kg, mice 1): 991 109/L
RBC ([1]; 12 mg/kg, mice 1): 9 1012/L
WBC ([1]; 12 mg/kg, mice 1): 1.9 109/L
ALP ([1]; 12 mg/kg, mice 2): 145 U/L
ALT ([1]; 12 mg/kg, mice 2): 63 U/L
AST ([1]; 12 mg/kg, mice 2): 191 U/L
BUN ([1]; 12 mg/kg, mice 2): 13.11 mmol/L
CREA ([1]; 12 mg/kg, mice 2): 28.5 µmol/L
HGB ([1]; 12 mg/kg, mice 2): 15.4 g/dL
NEUT ([1]; 12 mg/kg, mice 2): 0.3 109/L
PLT ([1]; 12 mg/kg, mice 2): 1110 109/L
RBC ([1]; 12 mg/kg, mice 2): 9.3 1012/L
WBC ([1]; 12 mg/kg, mice 2): 1.6 109/L
ALP ([1]; 12 mg/kg, mice 3): 153 U/L
ALT ([1]; 12 mg/kg, mice 3): 60 U/L
AST ([1]; 12 mg/kg, mice 3): 190 U/L
BUN ([1]; 12 mg/kg, mice 3): 12.9 mmol/L
CREA ([1]; 12 mg/kg, mice 3): 30.6 µmol/L
HGB ([1]; 12 mg/kg, mice 3): 15.6 g/dL
NEUT ([1]; 12 mg/kg, mice 3): 0.3 109/L
PLT ([1]; 12 mg/kg, mice 3): 1144 109/L
RBC ([1]; 12 mg/kg, mice 3): 10 1012/L
WBC ([1]; 12 mg/kg, mice 3): 1.9 109/L
ALP ([1]; 12 mg/kg, mice 4): 146 U/L
ALT ([1]; 12 mg/kg, mice 4): 60 U/L
AST ([1]; 12 mg/kg, mice 4): 190 U/L
BUN ([1]; 12 mg/kg, mice 4): 13.29 mmol/L
CREA ([1]; 12 mg/kg, mice 4): 29.9 µmol/L
HGB ([1]; 12 mg/kg, mice 4): 16.4 g/dL
NEUT ([1]; 12 mg/kg, mice 4): 0.3 109/L
PLT ([1]; 12 mg/kg, mice 4): 1087 109/L
RBC ([1]; 12 mg/kg, mice 4): 10.1 1012/L
WBC ([1]; 12 mg/kg, mice 4): 2.1 109/L
ALP ([1]; 16 mg/kg, mice 1): 150 U/L
ALT ([1]; 16 mg/kg, mice 1): 57 U/L
AST ([1]; 16 mg/kg, mice 1): 182 U/L
BUN ([1]; 16 mg/kg, mice 1): 14.18 mmol/L
CREA ([1]; 16 mg/kg, mice 1): 31.7 µmol/L
HGB ([1]; 16 mg/kg, mice 1): 15.7 g/dL
NEUT ([1]; 16 mg/kg, mice 1): 0.4 109/L
PLT ([1]; 16 mg/kg, mice 1): 1194 109/L
RBC ([1]; 16 mg/kg, mice 1): 9.6 1012/L
WBC ([1]; 16 mg/kg, mice 1): 2 109/L
ALP ([1]; 16 mg/kg, mice 2): 145 U/L
ALT ([1]; 16 mg/kg, mice 2): 56 U/L
AST ([1]; 16 mg/kg, mice 2): 188 U/L
BUN ([1]; 16 mg/kg, mice 2): 13.21 mmol/L
CREA ([1]; 16 mg/kg, mice 2): 29.4 µmol/L
HGB ([1]; 16 mg/kg, mice 2): 15.3 g/dL
NEUT ([1]; 16 mg/kg, mice 2): 0.3 109/L
PLT ([1]; 16 mg/kg, mice 2): 984 109/L
RBC ([1]; 16 mg/kg, mice 2): 10.5 1012/L
WBC ([1]; 16 mg/kg, mice 2): 1.5 109/L
ALP ([1]; 16 mg/kg, mice 3): 148 U/L
ALT ([1]; 16 mg/kg, mice 3): 64 U/L
AST ([1]; 16 mg/kg, mice 3): 180 U/L
BUN ([1]; 16 mg/kg, mice 3): 12.87 mmol/L
CREA ([1]; 16 mg/kg, mice 3): 28.9 µmol/L
HGB ([1]; 16 mg/kg, mice 3): 15.1 g/dL
NEUT ([1]; 16 mg/kg, mice 3): 0.3 109/L
PLT ([1]; 16 mg/kg, mice 3): 1087 109/L
RBC ([1]; 16 mg/kg, mice 3): 10.6 1012/L
WBC ([1]; 16 mg/kg, mice 3): 1.9 109/L
ALP ([1]; 16 mg/kg, mice 4): 146 U/L
ALT ([1]; 16 mg/kg, mice 4): 59 U/L
AST ([1]; 16 mg/kg, mice 4): 193 U/L
BUN ([1]; 16 mg/kg, mice 4): 12.98 mmol/L
CREA ([1]; 16 mg/kg, mice 4): 32.5 µmol/L
HGB ([1]; 16 mg/kg, mice 4): 15 g/dL
NEUT ([1]; 16 mg/kg, mice 4): 0.4 109/L
PLT ([1]; 16 mg/kg, mice 4): 1072 109/L
RBC ([1]; 16 mg/kg, mice 4): 9.8 1012/L
WBC ([1]; 16 mg/kg, mice 4): 1.9 109/L
blood routine examination (WBC, RBC, PLT, LYMPH, NEUT) ([1]; healthy mice, i.v. 8, 12 and 16 mg/kg, 1 day): comparable with that of PBS group
hepatic and renal function markers (ALT, AST, ALP, BUN, CRE) [1, 3]: normal ranges of values
histopathology (H&E) of major organs [1, 3]: no remarkable histopathological damages
iron levels of tumor tissues versus other groups (EJ tumor tissues): substantially higher
particle size (TEM) [2]: 57 ± 9 nm

Reference: paper PMC10784468 (Nature Communications, 2024)
